Results on ten molecules are retold here after patent US20200095340A1.

The labels stand for the following.
B1: anti-DLL3 trispecific protein, DLL3 binder 3H06 (protein, part only; not given: CD3 fragment and albumin sdAb, part only)
chain, part: EVQLVESGGGLVQPGGSLTLSCAASGSSVSQLSMAWYRQAPGKKRELVAGISADGSTDYFDSVKGRFTISRDNAKNSVYLQMNSLRAEDTAVYYCYAYRWTTRGTYWGQGTLVTVSSGGGGSGGGSGGGGSGGGSHHHHHH
B2: anti-DLL3 trispecific protein, DLL3 binder 3H011 (protein, part only; not given: CD3 binder and albumin binder, part only)
chain, part: EVQLVESGGGLVQPGGSLTLSCAASGSSVKFLSMAWYRQAPGKKRELVAGISADGSTVYIDSVKGRFTISRDNAKNSVYLQMNSLRAEDTAVYYCYAYRWPTRYTYWGQGTLVTVSSGGGGSGGGSGGGGSGGGSHHHHHH
B3: anti-DLL3 trispecific protein, DLL3 binder 4D09-M34L (protein, part only; not given: anti-CD3 fragment and anti-albumin sdAb, part only)
chain, part: EVQLVESGGGLVQPGGSLTLSCAASGSSVKFLSLAWYRQAPGKKRELVAGISADGSTDYILSVKGRFTISRDNAKNSVYLQMNSLRAEDTAVYYCYAYEWTTRYTYWGQGTLVTVSSGGGGSGGGSGGGGSGGGSHHHHHH
B4: anti-DLL3 trispecific protein, DLL3 binder 1C03 (protein, part only; not given: CD3 fragment and albumin sdAb, part only)
chain, part: EVQLVESGGGLVQPGGSLTLSCVASGSTSSINAMAWYRRAPGKQRELVAGISSDNSKVYADSVKGRFTISRDNAKNSVYLQMNSLRAEDTAVYYCYYFRTVGGSSMRYWGQGTLVTVSSGGGGSGGGSGGGGSGGGSHHHHHH
B5: anti-DLL3 trispecific protein, DLL3 binder 2E011 (protein, part only; not given: anti-CD3 fragment and anti-albumin sdAb, part only)
chain, part: EVQLVESGGGLVQPGGSLTLSCVASGSTSSINAIGWYRRAPGKQRELVAGISSDGSSVYADSVKGRFTISRDNAKNSVYLQMNSLRAEDTAVYYCYYFRRVSGSSMRYWGQGTLVTVSSGGGGSGGGSGGGGSGGGSHHHHHH
B6: anti-DLL3 trispecific protein, DLL3 binder 2E05-M106Q (protein, part only; not given: CD3 binder and albumin binder, part only)
chain, part: EVQLVESGGGLVQPGGSLTLSCVASGSPSSINAYGWYRRAPGKQRELVAGISSDGSKVYSDSVKGRFTISRDNAKNSVYLQMNSLRAEDTAVYYCYYFRTVSGSSQSYWGQGTLVTVSSGGGGSGGGSGGGGSGGGSHHHHHH
B7: anti-DLL3 trispecific protein, DLL3 binder 2C04 (protein, part only; not given: CD3 fragment and albumin sdAb, part only)
chain, part: EVQLVESGGGLVQPGGSLTLSCVASGSTSSRNAMGWYRRAPGKQRELVAGISSDGSKLYADSVKGRFTISRDNAKNSVYLQMNSLRAEDTAVYYCYYFRTVLGSSMRYWGQGTLVTVSSGGGGSGGGSGGGGSGGGSHHHHHH
B8: anti-DLL3 trispecific protein, DLL3 binder 2E05-M106Y (protein, part only; not given: CD3 binder and albumin binder, part only)
chain, part: EVQLVESGGGLVQPGGSLTLSCVASGSPSSINAYGWYRRAPGKQRELVAGISSDGSKVYSDSVKGRFTISRDNAKNSVYLQMNSLRAEDTAVYYCYYFRTVSGSSYSYWGQGTLVTVSSGGGGSGGGSGGGGSGGGSHHHHHH
B9: anti-DLL3 trispecific protein, DLL3 binder 3A02 (protein, part only; not given: CD3 binder and albumin binder, part only)
chain, part: EVQLVESGGGLVQPGGSLTLSCAASGSSVSFLSLAWYRQAPGKKRELVAGISADGSTAYIDSVKGRFTISRDNAKNSVYLQMNSLRAEDTAVYYCYAYRWRTRYTYWGQGTLVTVSSGGGGSGGGSGGGGSGGGSHHHHHH
B10: anti-DLL3 trispecific protein, DLL3 binder 3A011 (protein, part only; not given: anti-CD3 fragment and anti-albumin domain, part only)
chain, part: EVQLVESGGGLVQPGGSLTLSCAASGSSVSFLSLAWYRQAPGKKRELVAGISTDGSTDYIDSVKGRFTISRDNAKNSVYLQMNSLRAEDTAVYYCYAYRWRTRYTYWGQGTLVTVSSGGGGSGGGSGGGGSGGGSHHHHHH

One assay deals with human DLL3 on DMS-153 cells (human) (UniProt Q9NYJ7). Kind of assay: cell-based or functional assay.
human DLL3 on DMS-153 cells (human), sequence (Q9NYJ7 27-618 limits assumed): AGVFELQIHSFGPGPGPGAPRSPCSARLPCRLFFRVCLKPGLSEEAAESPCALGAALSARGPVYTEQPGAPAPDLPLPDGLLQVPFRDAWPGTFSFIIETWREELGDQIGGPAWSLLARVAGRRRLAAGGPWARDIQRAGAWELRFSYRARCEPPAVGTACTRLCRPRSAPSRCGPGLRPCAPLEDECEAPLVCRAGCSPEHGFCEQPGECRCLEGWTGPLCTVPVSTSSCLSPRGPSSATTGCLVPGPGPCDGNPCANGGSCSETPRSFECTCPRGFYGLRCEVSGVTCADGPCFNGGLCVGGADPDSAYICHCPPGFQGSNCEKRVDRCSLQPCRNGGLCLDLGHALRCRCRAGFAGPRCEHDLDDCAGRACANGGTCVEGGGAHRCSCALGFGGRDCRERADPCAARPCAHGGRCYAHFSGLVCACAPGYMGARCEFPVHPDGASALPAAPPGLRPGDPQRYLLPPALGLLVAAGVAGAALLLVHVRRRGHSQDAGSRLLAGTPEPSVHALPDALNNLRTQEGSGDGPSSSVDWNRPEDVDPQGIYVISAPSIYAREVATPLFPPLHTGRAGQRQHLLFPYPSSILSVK
B1 yielded a DMS-153 TDCC EC50 (conditioned medium, human T cells) of 0.12 nM.
On the same count and under the same terms, the value for B2 was 0.12 nM.
The molecule B3 displayed a TDCC EC50 (CHO expressed, purified protein; method of Example 2, DMS-153 cells) of 0.054 nM.
Consider B4, for which the DMS-153 TDCC EC50 (conditioned medium, human T cells) came to 0.096 nM.
Take B5: the DMS-153 TDCC EC50 (conditioned medium, human T cells) is 0.19 nM.
As for B6, the TDCC EC50 (CHO expressed, purified protein; method of Example 2, DMS-153 cells) was 0.041 nM.
Same read-out and setting: the result for B7 reads 0.043 nM; that for B8, 0.063 nM.

The target in another assay is cynomolgus DLL3 protein (cynomolgus). Kind of assay: Octet, single concentration of trispecific (60 nM), cynomolgus DLL3. Background: In BLI a coated tip is dipped into the sample, and binding shifts an interference pattern.
cynomolgus DLL3 protein (cynomolgus), sequence (chain, as listed by the source): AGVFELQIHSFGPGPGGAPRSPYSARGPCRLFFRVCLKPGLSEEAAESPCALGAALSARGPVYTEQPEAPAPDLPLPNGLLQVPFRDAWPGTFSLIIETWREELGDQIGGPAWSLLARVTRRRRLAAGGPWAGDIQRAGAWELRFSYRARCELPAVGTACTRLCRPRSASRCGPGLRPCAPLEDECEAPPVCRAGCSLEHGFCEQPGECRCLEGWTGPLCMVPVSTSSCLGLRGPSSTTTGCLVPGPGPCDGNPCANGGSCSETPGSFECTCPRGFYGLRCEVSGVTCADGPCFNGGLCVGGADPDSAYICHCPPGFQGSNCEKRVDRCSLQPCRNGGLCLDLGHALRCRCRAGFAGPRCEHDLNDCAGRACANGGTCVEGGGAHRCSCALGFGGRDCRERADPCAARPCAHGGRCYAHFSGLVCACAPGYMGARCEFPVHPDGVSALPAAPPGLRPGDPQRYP
Broadly, the Kd is the equilibrium constant for the complex coming apart. Regarding B9, the Kd came out at 9.5 nM.
B10 gave a Kd of 8.8 nM.

For a further assay, the target named is biotinylated human DLL3 protein expressed as a human IgG1 fusion protein (human) (UniProt Q9NYJ7). In words: Octet, several concentrations of trispecific (60, 20, 6.67, 2.22 nM), human DLL3.
biotinylated human DLL3 protein expressed as a human IgG1 fusion protein (human), sequence (Q9NYJ7 27-492): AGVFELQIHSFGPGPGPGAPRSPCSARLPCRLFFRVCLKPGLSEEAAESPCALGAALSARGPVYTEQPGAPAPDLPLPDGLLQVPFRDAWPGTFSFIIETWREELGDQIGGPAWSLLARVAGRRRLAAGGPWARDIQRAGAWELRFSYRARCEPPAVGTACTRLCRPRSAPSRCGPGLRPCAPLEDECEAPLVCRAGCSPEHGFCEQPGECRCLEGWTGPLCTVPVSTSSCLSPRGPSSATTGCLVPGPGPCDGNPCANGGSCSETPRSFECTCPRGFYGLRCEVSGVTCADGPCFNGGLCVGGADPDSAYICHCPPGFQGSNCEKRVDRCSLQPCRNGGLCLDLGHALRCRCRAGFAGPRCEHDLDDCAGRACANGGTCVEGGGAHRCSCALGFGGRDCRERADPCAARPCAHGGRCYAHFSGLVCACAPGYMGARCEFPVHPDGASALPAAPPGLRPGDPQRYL
In turn, B9 came in with a Kd of 7.8 nM.
On the same count and under the same terms, the result for B10 reads 7.3 nM.
